Laboratory results from a protein production outcome set (Wang et al. 2014).

Assay: label from the status in PepcDB records

MKPSHQQQKQASAAKDEKKDIIPLSAEKADGAEGWLNNSTILYTASNPTKTELFPYRIFTGKAKKLYQTDGQIVDVQINAREQMILLQITHSQKTAVVLLNAEGETLYEKDYETYELEAAWNQYDPYQMMVTEFNENWDFHTYQVNAKKDESFLSPVQVPFIHWTSKNTFDYVKEGRDDKTGPLYTFDTASKTEQKLEDNVLFFDSFHQMSFTVKSASGGKGTYQFKTPQSTSPVTAKWPLQAKYTSLAPMEYDYDEAGSLFYTFKQSGDAYKLAAINVASGETKDLVSLREMEPIQISPNGKYALYGFHFEQIILLKSHETKQLIIDQKEMELEHHHHHH
protein production: failed

MTDKKSENKTIQGASSLSLENRKILSITGVNEVINFDEEKISLKTDLGPLLIKGSELKMNKLDVQNGEVIIGGFISNIDYLNKKNKRKRNINLLSKIFKLEHHHHHH
protein production: not failed

MFPLNFHYEDVSRQDPLLKPNHANVMEVPGSCEIRVVPKAPYNFIIKNGKLAMEIPRGQKFIQTQRGSTGKSFRSNPFLGSNKDKGYVSDLARQSTLRGHGMSNFSVRISTVMSLLDFPVEIRKNSIQFSMETEFCEFSPELEDHFEIFEHIRGFNVTIITSANTQDETLPLWSGFLQKDEGETQ
protein production: failed

MSDCSFIIVGGGGHARVVASTLRRLGETILGFTDPDEEATLGDGIEHLGRDKILTEKDPSKVALTMGMGSVRDTGHRAGLFTEQVENGFRFPTLIHPDAVLASEAKTKAGVQVMAGGVIQPGASLGENVIVNTNASVDHDCQIGAHSHVASGATLSGEVVLESQVHVGTGASIIQGVDVGKNSVVGAGAVVIEDVPPETVVIGVPAHPK
protein production: failed

MVGERMWWWSSSSTKLRSNLERFLRGITPKPPSFSLSQSCKNDLNSLWIHENKDEIEYFRLSDLWDCFDEPSAYGLGSKVDLNNGESVMQYYVPYLSAIQIYTNKSTAISRIHSDVVDCESECWSDDSEIEKLSRSMSSGSSKIWDSVSDDSGYEIDGTSSLMRDKLGSIDFQYFESVKPHLRVPLTAKVNELAEKYPGLSTLRSVDLSPASWLAIAWYPIYHIPSRKTDKDLSTCFLSYHTLSSAFQGNLIEGDDEINETMKEETLCFDEGPVTKSIPLAPFGLVSYKLQGDLWRNQECGDQGRIVYLRSAADSWLKQLNVQDHHDHSFFSMNMSL
protein production: failed

MNYKKHRGETLFKRWFLNNRFSIVLLNILLFFLIIWVFNKISFVLNPAWVFFSAILPPLLLALIQYYIMNPVVDWFEKKFRVPRVLTIIVLFLFVVIAMIWIINILVPIAQHQINSLVKNWPHIWNDAVNATQNALRDPRLHSVKGSIQGMIDDTQKTLFKSGQNTVNSTLGNISSAVSIITMIVMTLLTAPFILFFMLKDGHQLRPYITKFVPETWQQSFSKLLYDINYAVASYIRGQITVAFWVGVMFTIGYIIIGLPYGLALAILAGFMNLIPYFGTPLALIPVIVISIMTSGSMLVKVLIVFAIEQTIETRILSPLVMGNKMQMHPVTTILLLIGASSVWGLWGVIFGIPIYAVLKIIVSRVYNYYRRESDIFSNEDAASLTTGDADESKK
protein production: failed

STVKRKPVFVKVEQLKPGTTGHTLTVKVIEANIVVPVTRKTRPASSLSRPSQPSRIVECLIGDETGCILFTARNDQVDLMKPGATVILRNSRIDMFKGTMRLGVDKWGRIEATGAASFTVKEDNNLSLVEYE
protein production: not failed

MKKIATATIATAGIATFAFAHHDAQAAEQNNDGYNPNDPYSYSYTYTIDAEGNYHYTWKGNWSPDRVNTSYNYNNYNNYNYYGYNNYSNYNNYSNYNNYNNYQSNNTQSQRTTQPTGGLGASYSTSSSNVHVTTTSAPSSNGVSLSNARSASGNLYTSGQCTYYVFDRVGGKIGSTWGNANNWANAAARSGYTVNNSPAKGAILQTSQGAYGHVAYVEGVNSNGSIRVSEMNYGHGAGVVTSRTISASQAASYNYIHLEHHHHHH
protein production: failed

VDRDYLQSEYGVLKAGQCYKVVRSFRDYRNINYERGDVMRFLGSNFVPYESGLSLFFDKNGSERQIMLCVRPEFQMEIAHHLDSYFCKLDDN
protein production: not failed

MANIEIRQETPTAFYIKVHDTDNVAIIVNDNGLKAGTRFPDGLELIEHIPQGHKVALLDIPANGEIIRYGEVIGYAVRAIPRGSWIDESMVVLPEA
protein production: not failed

MDSKEGKLTVIGEFDEMQILKKLKKRWESAKMATFGPFDPKKEAETAAAAEKKKKEENEREREREREEALYRSQSHHDTPVCPMHHHTTIVCDHDHGCIIS
protein production: failed

SSRRRRIVAAARDYVLAHRSRPVGVPELCEQLHVSRRTLQYCFQDVLGMAPATYLRALRLNGVRRDLRGRAADSVQDVAAAWGFWHLSQFATDYRRMFGARPSETLRGALA
protein production: failed

MAGLSGAQIPDGEFTAVVYRLIRNARYAEAVQLLGGELQRSPRSRAGLSLLGYCYYRLQEFALAAECYEQLGQLHPELEQYRLYQAQALYKACLYAEATRVAFLLLDNPAYHSRVLHLQAAIKYSEGDLPGSRSLVEQLPSREGGEESGGENETDGQINLGCLLYKEGQYEAACSKFFAALQASGYQPDLSYNLALAYYSSRQYASALKHIAEIIERGIRQHPELGVGMTTEGIDVRSVGNTLVLHQTALVEAFNLKAAIEYQLRNYEAAQEALTDMPPRAEEELDPVTLHNQALMNMDARPTEGFEKLQFLLQQNPFPPETFGNLLLLYCKYEYFDLAADVLAENAHLIYKFLTPYLYDFLDAVITCQTAPEEAFIKLDGLAGMLTEVLRKLTIQVQEARHNRDDEAIKKAVNEYDETMEKYIPVLMAQAKIYWNLENYPMVEKIFRKSVEFCNDHDVWKLNVAHVLFMQENKYKEAIGFYEPIVKKHYDNILNVSAIVLANLCVSYIMTSQNEEAEELMRKIEKEEEQLSYDDPDKKMYHLCIVNLVIGTLYCAKGNYDFGISRVIKSLEPYNKKLGTDTWYYAKRCFLSLLENMSKHTIMLRDSVIQECVQFLEHCELHGRNIPAVIEQPLEEERMHVGKNTVTYESRQLKALIYEIIGWNI
protein production: failed

KQAEMEVKRESYARERSTVARIQFRLPDGSSFTNQFPSDAPLEEARQFAAQTVGNTYGNFSLATMFPRREFTKEDYKKKLLDLELAPSASVVLLP
protein production: failed

MALASSEALVNLVEYARWNQCGVSGGPGTKEFSAEGTEAAKGGRRKAAGGRAGRGGAGRERGGTRDPAMGPGARLALLALLALGGDPAAATGREDTFSALTSVARALAPERRLLGTLRRYLRGEEARLRDLTRFYDKVLSLHEDLKIPVVNPLLAFTLIKRLQSDWRNVVHSLEATENIRALKDGYEKVEQDLPAFEDLEGAARALMRLQDVYMLNVKGLARGVFQRVTGSSITDLYSPRQLFSLTADDCFQVGKVAYDTGDYYHAIPWLEEAVSLFRRAHGEWKTEDEASLEDALDYLAFACFQVGNVSCALSLSREFLVYSPDNKRMARNVLKYERLLAENGHQMAAETAIQRPNVPHLQTRDTYEGLCQTLGSQPTHYQIPSLYCSYETNSSPYLLLQPARKEVVHLRPLIALYHDFVSDEEAQKIRELAEPWLQRSVVASGEKQLQVEYRISKSAWLKDTVDPMLVTLDHRIAALTGLDIQPPYAEYLQVVNYGIGGHYEPHFDHATSPSSPLYRMKSGNRVATFMIYLSSVEAGGATAFIYGNFSVPVVKLSSVEAGGATAFIYGNFSVPVVKLHVFTVPMDGGPWCTCGHWVANKWIHEYGQEFRRPCSTNPED
protein production: failed

MEEINKYIQNSSETGGEIYNLIEELFPICRSITGNGVRKTMDIIRKHIPLEIHEVKSGTKVFDWTVPKEWNIKDAYVRNSKGEKVIDFKENNLHVMSYSVPVHKTMTLDELKPYLHTIPGNKDRIPYLTSYYKENWGFSLTQNKFDELCDDDYEVVIDSSLEDGSLTYGEYYIRGELEEEILLTTYTCHPSMCNDNLSGVALITFIAKALSKLKTKYSYRFLFAPETIGSITWLSRNEDKLKNIKMGLVATCVGDAGIKNYKRTKFGDAEIDKIVEKVLMHCGSEYYVADFFPWGSDERQFSSPGINLSVGSLMRSCYGFDGYHTSADNLCYMNKDGLADSYKTYLEVIYTIENNRTYLNLNPKCEPQLGKRGIYRMIGGGSDYPFDEFAMFWVLNMSDGKNSLLDIAYKSGMEFRRIKYAADALYRVELLKLV
protein production: not failed

MKLLLALMLFMTFFAHAADPEPGSQYLQAAEAGDRRAQYFLADSWLSYGDLNKAEYWAQKAADSGDADACALLAQIKITNPVSLDYPDAKKLAEKAANAGSKVGEITLARILVNTQAGRPDYPKAISLLQKASEDLDNDSAVDAQMLLGLIYANGVGIAADDEKAAWYFKRSSAISRTGYSEYWAGMMFLNGEPGFIEKNKQKALHWLNLSCLEGFDTGCEEFETLTNG
protein production: failed

GNPEIKGRRRQIAQEIAYEDTSSQIKHASAVVSNPKDIAVAIGYMPEKYKAPWIIAMGVNLRAKRIIAEAEKYGVPIMRNVPLAHQLLDEGKELKFIPETTYEAVGEILLYITSLNAQNLENKNINQFDNL
protein production: not failed

MSRSLGIPVKLLHEASGHIVTVELKSGELYRGSMIECEDNWNCQLEDITYTAKDGKVSQLEHVFIRGSKVRFMVIPDILKHAPMFKRLDARIKGKSSSLGVGRGRGAMRGKPAAGPGRGTGGRGAVPPVRR
protein production: failed

MLNKTASYSEIEMSVVVPKDSKITNIEAVSKLAAPVKNDTSNITDLIEHIKSEKGISITPQKTDSYQDAYNRIKSGDSQAMVLNNAYVSLIELSTPDFKSQIKTIYTYKIKKKINRKNTNHKEGVFNIYISGIDTFGSISTVSRSDVNIIMTVNTNTHKVLLTTTPRDAYVKIPDGGGNQYDKLTHAGLYGVETSMKTLENLYDINLDYYARINFSSFLKLIDLLGGVTVYNDQAFTSKHGNFDFPVGQVTLNSEQALGFVRERYSLQGGDNDRGRNQEKVIAAIINKLASSQSVTKLNSITSQLQTSVQTNMTIDNINDLINNQLSTGQRFTVESQALTGHGSTGELPSYAMPGAQLYMMSIDQSSLSNAKSKIKNTMEELEHHHHHH
protein production: not failed

MLFLDSVAMKEKPEGREEYPFSVPAMRHLERLEFKTPITFFAGNNGSGKSTLLEGLAAGMTAYAIGNHGDVKGDLYLQHAETVAKAFYFARKKYPKIRMFLRAEDVLGYIRRQNENALDDFRWEREKALKKGEDFPEETPEIFRGIVRNNSLDRRSHGEGFLDIMHRRLHGAGLYFLDEPESPLSPQKQLELAAIIRQAADSGGQLIIATHSPVLLAIPEATIYYFDEDGITERLYDELENIAFLRRFLDRPSKYLDDLEHHHHHH
protein production: not failed

MSTVNGANIQSEEQHTGGCSAGCSGGSTGGSTDGSTGGNTQQGCSCDTHDEQRDGSVAAQTFGEEGPVKTLGRIGSKLVVLSGKGGVGKSTVAVNLAVGLARAGRKVGLLDVDVHGPSVPRLLGLTGTRPMIGEDAMYPVGWRNNLRVMSLGFFLPDPEQAVIWRGPVKMGLIRHFLTEVRWGDLDHLVVDCPPGTGDEPLSVLQLLGTDAQAVIVTTPQGVAVDDVRRSVGFCRELGNPILGIVENMGGYVCPKCGELTPLFPAGGGEALAAEQGVTFLGRIPLHPDLTSAGDAGRSLYEADAAHPIVRALAPIVERAAATLHASDIRHESTTGPQSEAAPGTGKTAATMPTAPTRNESCAPATNHPDTNGDTTMKIAIPVAGDVLCQHFGHCERFALIDVDPATGSVTGRNDVTPPPHEPGLLPVWLSEKGANLVIAGGMGARARALLEERGVKVLIGAPAAAPEAIVAAHMAGTLTLGANTCDH
protein production: failed

MSNGGSFTVEKLSLYGNPNIGVYLTASDSYVLAPDDIGADDVRTISEVLGVAMERVVRLRVLGMRLVGVLTTGNSRGILLPEGVDREVELVRKALEGVEVGIVPTRSNALGNVIVCNDRACLASPGLEKEALKTVSDTLGVEVVEGSVAGVYTVGSAIVVTNRGGLAHPDASEEELKFLSDVFKVPFEAGTINFGVEFVRTGLVANSYGALVGEDTTGPEIARIQVALGGGVK
protein production: failed
